Experiment in all cases: EMSA
Background: In EMSA bound probe runs differently from free probe, usually more slowly.

Series [1] has as its target T1, CsrA (Escherichia coli, UniProt P69913 1-61).
The target in series [2] is T1, CsrA. This is another data set of the same source.
Series [3] deals with T1, CsrA. This is another data set of the same source.

Where two headings read alike, the source gives them in different places.

T1 sequence (P69913 whole entry): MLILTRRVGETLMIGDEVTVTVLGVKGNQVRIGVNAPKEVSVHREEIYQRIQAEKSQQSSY

B1: uxuB 5' UTR truncation mutant (ssRNA)
RNA: GGGAUAAUGCGCUUUCUUUAGCCGUUAAUAUCCACCGGCAUGGCUGCGCGCCGUGCCGGUUCCUUCUUGCUUGGCGUCACUCUUUGAAGACGCAUUCUGCAGUUUACGA
For the molecule B1, the binding result in the series with CsrA [1] was “no binding”.

B2: uxuB CDS truncation wild type (ssRNA)
RNA: GGGAUAAUAUGACUACUAUUGUUGACAGCAAUCUGCCGGUUGCCCGCCCGUCAUGGGAUCAUUCUCGUCUGGAAUCACGCAUUGUGCAUCUCGGUUGCGGGGCGUUUC
As usually defined, the Kd is the concentration at which binding is half-saturated. B2 registered a dissociation constant Kd with CsrA [2] of approximately 164 nM.

B3: uxuB leader wild type (ssRNA)
RNA: GGGAUAAUGCGCUUUCUUUAGCCGUUAAUAUCCACCGGCAUGGCUGCGCGCCGUGCCGGUUCCUUCUUCCUUGCCGUCACUCUUUGAAGACGGAUUCUGGAGUUUACGAUGACUACUAUUGUUGACAGCAAUCUGCCGGUUGCCCGCCCGUCAUGGGAUCAUUCUCGUCUGGAAUCACGCAUUGUGCAUCUCGGUUGCGGGGCGUUUC
On to B3, for which the Kd with CsrA [3] was approximately 83.2 nM.

B4: uxuB CDS mutant (DOWNSTR mut) (ssRNA)
RNA: GGGAUAAUGCGCUUUCUUUAGCCGUUAAUAUCCACCGGCAUGGCUGCGCGCCGUGCCGGUUCCUUCUUCCUUGCCGUCACUCUUUGAAGACGGAUUCUGGAGUUUACGAUGACUACUAUUGUUGACAGCAAUCUGCCGGUUGCCCGCCCGUCAUUUGAUCAUUCUCGUCUGCAAUCACGCAUUGUGCAUCUAGGUUGCGGGGCGUUUCGCAUGC
B4: the “apparent K (half saturation)” value with CsrA [3] was approximately 158 nM.

B5: uxuB no GGAs mutant (ssRNA)
RNA: GGGAUAAUGCGCUUUCUUUAGCCGUUAAUAUCCACCGGCAUGGCUGCGCGCCGUGCCGGUUCCUUCUUGCUUGGCGUCACUCUUUGAAGACGCAUUCUGCAGUUUACGAUGACUACUAUUGUUGACAGCAAUCUGCCGGUUGCCCGCCCGUCAUUUGAUCAUUCUCGUCUGCAAUCACGCAUUGUGCAUCUAGGUUGCGGGGCGUUUCGCAUGC
B5: the “apparent K (half saturation)” value with CsrA [3] was approximately 193 nM.

The record behind these values is doi:10.1101/2024.09.28.615595.
